# In patent US20190038623A1:
# Legend:
# [1] = target: complement component C3 (human) (UniProt P01024); assay: cell-based or functional assay
# [2] = target: human complement component C5 (human) (UniProt P01031); assay: cell-based or functional assay
substance,measurement,setting,value
Compstatin (peptide),"IC50 (µM), Inhibition of C3 Fragment deposition on artificial PNH cells (flow cytometry, anti-C3c staining, N = 2)",[1],2.2 µM
same,"IC50 (µM), Inhibition of C3 Fragment deposition on rabbit erythrocytes (flow cytometry, 20% C5-depleted normal human serum), N = 1",[1],1.4 µM
same,"Inhibition (%) of CAP activity, CAP-mediated hemolysis of rabbit erythrocytes, Experiment 2, Compstatin 0.469 µM, Compound 1 0 µM",[1],6.9%
same,"Inhibition (%) of CAP activity, CAP-mediated hemolysis of rabbit erythrocytes, Experiment 2, Compstatin 0.934 µM, Compound 1 0 µM",[1],6%
same,"Inhibition (%) of CAP activity, CAP-mediated hemolysis of rabbit erythrocytes, Experiment 2, Compstatin 1.88 µM, Compound 1 0 µM",[1],10%
same,"Inhibition (%) of CAP activity, CAP-mediated hemolysis of rabbit erythrocytes, Experiment 2, Compstatin 3.75 µM, Compound 1 0 µM",[1],15%
same,"Inhibition (%) of CAP activity, CAP-mediated hemolysis of rabbit erythrocytes, Experiment 2, Compstatin 7.5 µM, Compound 1 0 µM",[1],41%
same,"Inhibition (%) of CAP activity, CAP-mediated hemolysis of rabbit erythrocytes, Experiment 2, Compstatin 15 µM, Compound 1 0 µM",[1],80%
same,"Inhibition (%) of CAP activity, CAP-mediated hemolysis of rabbit erythrocytes, Experiment 2, Compstatin 30 µM, Compound 1 0 µM",[1],98%
same,"Inhibition (%) of CAP activity, CAP-mediated hemolysis of rabbit erythrocytes, Experiment 3, Compstatin 0.469 µM, Compound 1 0 µM",[1],13%
same,"Inhibition (%) of CAP activity, CAP-mediated hemolysis of rabbit erythrocytes, Experiment 3, Compstatin 0.934 µM, Compound 1 0 µM",[1],17%
same,"Inhibition (%) of CAP activity, CAP-mediated hemolysis of rabbit erythrocytes, Experiment 3, Compstatin 1.88 µM, Compound 1 0 µM",[1],25%
same,"Inhibition (%) of CAP activity, CAP-mediated hemolysis of rabbit erythrocytes, Experiment 3, Compstatin 3.75 µM, Compound 1 0 µM",[1],40%
same,"Inhibition (%) of CAP activity, CAP-mediated hemolysis of rabbit erythrocytes, Experiment 3, Compstatin 7.5 µM, Compound 1 0 µM",[1],63%
same,"Inhibition (%) of CAP activity, CAP-mediated hemolysis of rabbit erythrocytes, Experiment 3, Compstatin 15 µM, Compound 1 0 µM",[1],97%
same,"Inhibition (%) of CAP activity, CAP-mediated hemolysis of rabbit erythrocytes, Experiment 3, Compstatin 30 µM, Compound 1 0 µM",[1],98%
same,"Inhibition (%) of CAP activity, CAP-mediated hemolysis of rabbit erythrocytes, Experiment 4, Compstatin 0.469 µM, Compound 1 0 µM",[1],9%
same,"Inhibition (%) of CAP activity, CAP-mediated hemolysis of rabbit erythrocytes, Experiment 4, Compstatin 0.934 µM, Compound 1 0 µM",[1],12%
same,"Inhibition (%) of CAP activity, CAP-mediated hemolysis of rabbit erythrocytes, Experiment 4, Compstatin 1.88 µM, Compound 1 0 µM",[1],22%
same,"Inhibition (%) of CAP activity, CAP-mediated hemolysis of rabbit erythrocytes, Experiment 4, Compstatin 3.75 µM, Compound 1 0 µM",[1],34%
same,"Inhibition (%) of CAP activity, CAP-mediated hemolysis of rabbit erythrocytes, Experiment 4, Compstatin 7.5 µM, Compound 1 0 µM",[1],64%
same,"Inhibition (%) of CAP activity, CAP-mediated hemolysis of rabbit erythrocytes, Experiment 4, Compstatin 15 µM, Compound 1 0 µM",[1],98%
same,"Inhibition (%) of CAP activity, CAP-mediated hemolysis of rabbit erythrocytes, Experiment 4, Compstatin 30 µM, Compound 1 0 µM",[1],99%
same,"Inhibition (%) of CAP activity, CAP-mediated hemolysis of rabbit erythrocytes, Experiment #1, Compstatin 0.469 µM, Compound 1 0 µM",[1],7.3%
same,"Inhibition (%) of CAP activity, CAP-mediated hemolysis of rabbit erythrocytes, Experiment #1, Compstatin 0.934 µM, Compound 1 0 µM",[1],3.6%
same,"Inhibition (%) of CAP activity, CAP-mediated hemolysis of rabbit erythrocytes, Experiment #1, Compstatin 1.88 µM, Compound 1 0 µM",[1],8.6%
same,"Inhibition (%) of CAP activity, CAP-mediated hemolysis of rabbit erythrocytes, Experiment #1, Compstatin 3.75 µM, Compound 1 0 µM",[1],17%
same,"Inhibition (%) of CAP activity, CAP-mediated hemolysis of rabbit erythrocytes, Experiment #1, Compstatin 7.5 µM, Compound 1 0 µM",[1],38%
same,"Inhibition (%) of CAP activity, CAP-mediated hemolysis of rabbit erythrocytes, Experiment #1, Compstatin 15 µM, Compound 1 0 µM",[1],65%
same,"Inhibition (%) of CAP activity, CAP-mediated hemolysis of rabbit erythrocytes, Experiment #1, Compstatin 30 µM, Compound 1 0 µM",[1],98%
same,"Inhibition (%) of CAP-mediated hemolysis of PNH erythrocytes, Experiment 2, Compstatin 4.69 µM alone (Compound 1 0 µM)",[1],0%
same,"Inhibition (%) of CAP-mediated hemolysis of PNH erythrocytes, Experiment 2, Compstatin 9.38 µM alone (Compound 1 0 µM)",[1],0%
same,"Inhibition (%) of CAP-mediated hemolysis of PNH erythrocytes, Experiment 2, Compstatin 18.8 µM alone (Compound 1 0 µM)",[1],0%
same,"Inhibition (%) of CAP-mediated hemolysis of PNH erythrocytes, Experiment 2, Compstatin 37.5 µM alone (Compound 1 0 µM)",[1],0%
same,"Inhibition (%) of CAP-mediated hemolysis of PNH erythrocytes, Experiment 2, Compstatin 75 µM alone (Compound 1 0 µM)",[1],10%
same,"Inhibition (%) of CAP-mediated hemolysis of PNH erythrocytes, Experiment 2, Compstatin 150 µM alone (Compound 1 0 µM)",[1],71%
same,"Inhibition (%) of CAP-mediated hemolysis of PNH erythrocytes, Experiment 2, Compstatin 300 µM alone (Compound 1 0 µM)",[1],99%
same,"Inhibition (%) of CAP-mediated hemolysis of PNH erythrocytes, Experiment #1, Compstatin 4.69 µM alone (Compound 1 0 µM)",[1],0%
same,"Inhibition (%) of CAP-mediated hemolysis of PNH erythrocytes, Experiment #1, Compstatin 9.38 µM alone (Compound 1 0 µM)",[1],0%
same,"Inhibition (%) of CAP-mediated hemolysis of PNH erythrocytes, Experiment #1, Compstatin 18.8 µM alone (Compound 1 0 µM)",[1],0%
same,"Inhibition (%) of CAP-mediated hemolysis of PNH erythrocytes, Experiment #1, Compstatin 37.5 µM alone (Compound 1 0 µM)",[1],0%
same,"Inhibition (%) of CAP-mediated hemolysis of PNH erythrocytes, Experiment #1, Compstatin 75 µM alone (Compound 1 0 µM)",[1],9%
same,"Inhibition (%) of CAP-mediated hemolysis of PNH erythrocytes, Experiment #1, Compstatin 150 µM alone (Compound 1 0 µM)",[1],86%
same,"Inhibition (%) of CAP-mediated hemolysis of PNH erythrocytes, Experiment #1, Compstatin 300 µM alone (Compound 1 0 µM)",[1],98%
"murine monoclonal antibody to human C5, isotype IgG1K, product No. A217 from Quidel","Inhibition (%) of CAP activity, CAP Wieslab assay, Experiment 2, Anti-C5 0.781 µg/mL, Compound 1 0 µM",[2],8.1%
same,"Inhibition (%) of CAP activity, CAP Wieslab assay, Experiment 2, Anti-C5 1.56 µg/mL, Compound 1 0 µM",[2],20%
same,"Inhibition (%) of CAP activity, CAP Wieslab assay, Experiment 2, Anti-C5 3.13 µg/mL, Compound 1 0 µM",[2],46%
same,"Inhibition (%) of CAP activity, CAP Wieslab assay, Experiment 2, Anti-C5 6.25 µg/mL, Compound 1 0 µM",[2],61%
same,"Inhibition (%) of CAP activity, CAP Wieslab assay, Experiment 2, Anti-C5 12.5 µg/mL, Compound 1 0 µM",[2],75%
same,"Inhibition (%) of CAP activity, CAP Wieslab assay, Experiment 2, Anti-C5 25 µg/mL, Compound 1 0 µM",[2],85%
same,"Inhibition (%) of CAP activity, CAP Wieslab assay, Experiment 2, Anti-C5 50 µg/mL, Compound 1 0 µM",[2],90%
same,"Inhibition (%) of CAP activity, CAP Wieslab assay, Experiment 3, Anti-C5 0.781 µg/mL, Compound 1 0 µM",[2],10%
same,"Inhibition (%) of CAP activity, CAP Wieslab assay, Experiment 3, Anti-C5 1.56 µg/mL, Compound 1 0 µM",[2],16%
same,"Inhibition (%) of CAP activity, CAP Wieslab assay, Experiment 3, Anti-C5 3.13 µg/mL, Compound 1 0 µM",[2],31%
same,"Inhibition (%) of CAP activity, CAP Wieslab assay, Experiment 3, Anti-C5 6.25 µg/mL, Compound 1 0 µM",[2],45%
same,"Inhibition (%) of CAP activity, CAP Wieslab assay, Experiment 3, Anti-C5 12.5 µg/mL, Compound 1 0 µM",[2],64%
same,"Inhibition (%) of CAP activity, CAP Wieslab assay, Experiment 3, Anti-C5 25 µg/mL, Compound 1 0 µM",[2],79%
same,"Inhibition (%) of CAP activity, CAP Wieslab assay, Experiment 3, Anti-C5 50 µg/mL, Compound 1 0 µM",[2],90%
same,"Inhibition (%) of CAP activity, CAP Wieslab assay, Experiment #1, Anti-C5 0.547 µg/mL, Compound 1 0 µM",[2],11%
same,"Inhibition (%) of CAP activity, CAP Wieslab assay, Experiment #1, Anti-C5 1.09 µg/mL, Compound 1 0 µM",[2],11%
same,"Inhibition (%) of CAP activity, CAP Wieslab assay, Experiment #1, Anti-C5 2.19 µg/mL, Compound 1 0 µM",[2],27%
same,"Inhibition (%) of CAP activity, CAP Wieslab assay, Experiment #1, Anti-C5 4.38 µg/mL, Compound 1 0 µM",[2],47%
same,"Inhibition (%) of CAP activity, CAP Wieslab assay, Experiment #1, Anti-C5 8.75 µg/mL, Compound 1 0 µM",[2],60%
same,"Inhibition (%) of CAP activity, CAP Wieslab assay, Experiment #1, Anti-C5 17.5 µg/mL, Compound 1 0 µM",[2],76%
same,"Inhibition (%) of CAP activity, CAP Wieslab assay, Experiment #1, Anti-C5 35 µg/mL, Compound 1 0 µM",[2],87%
